# According to the supplement of paper PMC10065799, “High-throughput profiling of sequence recognition by tyrosine kinases and SH2 domains using bacterial peptide display” (eLife, 2023):
# What was measured:
# EPHB2 = EPHB2 (UniProt P29323); assay: phosphorylation enrichment, bacterial display (enrichment ratio); higher = better substrate or ligand; peptides without Tyr show the background
# FGFR1 = FGFR1 (UniProt P11362); assay: as above
# FGFR3 = FGFR3 (UniProt P22607); assay: as above
# AncSZ = assay: as above
# Hck = Hck (UniProt P08631); assay: as above
# EPHB1 = EPHB1 (UniProt P54762); assay: as above
# Jak2 = Jak2 (UniProt O60674); assay: as above
# Fer (mouse) = assay: as above
# MERTK = MERTK (UniProt Q12866); assay: as above
# MERTK, sequence (Q12866 whole entry, looked up): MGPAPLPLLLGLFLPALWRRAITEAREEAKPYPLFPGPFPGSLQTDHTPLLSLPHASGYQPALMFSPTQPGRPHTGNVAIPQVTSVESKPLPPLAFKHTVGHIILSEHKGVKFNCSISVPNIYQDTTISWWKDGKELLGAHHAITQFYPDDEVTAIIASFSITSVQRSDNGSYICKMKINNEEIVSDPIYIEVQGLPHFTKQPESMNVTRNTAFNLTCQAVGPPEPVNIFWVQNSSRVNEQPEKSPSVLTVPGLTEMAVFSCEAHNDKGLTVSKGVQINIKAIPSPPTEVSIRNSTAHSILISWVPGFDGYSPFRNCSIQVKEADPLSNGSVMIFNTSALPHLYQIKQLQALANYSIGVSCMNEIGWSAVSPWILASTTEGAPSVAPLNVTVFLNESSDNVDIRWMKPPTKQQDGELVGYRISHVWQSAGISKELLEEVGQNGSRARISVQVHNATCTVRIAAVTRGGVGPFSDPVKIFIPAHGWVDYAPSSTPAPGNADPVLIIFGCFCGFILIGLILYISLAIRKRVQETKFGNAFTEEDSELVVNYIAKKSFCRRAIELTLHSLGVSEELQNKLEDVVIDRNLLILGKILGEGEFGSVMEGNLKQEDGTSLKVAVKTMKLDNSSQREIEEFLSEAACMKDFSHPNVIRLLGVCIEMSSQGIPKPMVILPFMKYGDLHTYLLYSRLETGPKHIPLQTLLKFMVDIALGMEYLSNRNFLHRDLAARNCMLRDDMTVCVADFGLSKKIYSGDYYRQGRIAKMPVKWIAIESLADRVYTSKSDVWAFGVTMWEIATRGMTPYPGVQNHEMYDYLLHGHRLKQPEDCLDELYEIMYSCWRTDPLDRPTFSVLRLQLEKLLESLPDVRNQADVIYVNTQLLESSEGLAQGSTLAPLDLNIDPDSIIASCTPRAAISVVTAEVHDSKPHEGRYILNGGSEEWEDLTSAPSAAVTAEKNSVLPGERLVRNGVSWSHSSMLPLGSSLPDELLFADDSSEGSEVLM
# c-Src = assay: as above
# Fes = Fes (UniProt P07332); assay: as above
# Fes, sequence (P07332 whole entry, looked up): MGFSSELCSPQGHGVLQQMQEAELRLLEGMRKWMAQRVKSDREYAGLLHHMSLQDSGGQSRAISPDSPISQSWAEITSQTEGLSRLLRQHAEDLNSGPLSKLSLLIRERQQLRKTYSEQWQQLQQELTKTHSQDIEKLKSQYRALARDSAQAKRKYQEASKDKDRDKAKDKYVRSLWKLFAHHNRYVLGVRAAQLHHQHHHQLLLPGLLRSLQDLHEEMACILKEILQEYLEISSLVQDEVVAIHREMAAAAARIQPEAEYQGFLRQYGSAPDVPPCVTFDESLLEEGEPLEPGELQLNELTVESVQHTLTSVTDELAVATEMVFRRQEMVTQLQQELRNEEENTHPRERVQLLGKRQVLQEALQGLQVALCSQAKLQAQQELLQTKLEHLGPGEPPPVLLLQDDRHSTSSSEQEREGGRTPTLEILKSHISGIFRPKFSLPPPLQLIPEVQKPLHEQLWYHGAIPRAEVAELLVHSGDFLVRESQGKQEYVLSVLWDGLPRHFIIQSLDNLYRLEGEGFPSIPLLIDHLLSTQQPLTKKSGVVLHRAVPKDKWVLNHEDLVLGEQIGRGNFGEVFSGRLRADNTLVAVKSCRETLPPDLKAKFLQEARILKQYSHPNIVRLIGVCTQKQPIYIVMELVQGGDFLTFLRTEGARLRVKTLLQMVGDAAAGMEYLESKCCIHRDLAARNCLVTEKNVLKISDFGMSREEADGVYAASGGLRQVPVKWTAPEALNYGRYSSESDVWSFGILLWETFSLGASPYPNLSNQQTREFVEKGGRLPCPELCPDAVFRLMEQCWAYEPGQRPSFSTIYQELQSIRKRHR
# Fyn = Fyn (UniProt P06241); assay: as above
# Fyn, sequence (P06241 whole entry, looked up): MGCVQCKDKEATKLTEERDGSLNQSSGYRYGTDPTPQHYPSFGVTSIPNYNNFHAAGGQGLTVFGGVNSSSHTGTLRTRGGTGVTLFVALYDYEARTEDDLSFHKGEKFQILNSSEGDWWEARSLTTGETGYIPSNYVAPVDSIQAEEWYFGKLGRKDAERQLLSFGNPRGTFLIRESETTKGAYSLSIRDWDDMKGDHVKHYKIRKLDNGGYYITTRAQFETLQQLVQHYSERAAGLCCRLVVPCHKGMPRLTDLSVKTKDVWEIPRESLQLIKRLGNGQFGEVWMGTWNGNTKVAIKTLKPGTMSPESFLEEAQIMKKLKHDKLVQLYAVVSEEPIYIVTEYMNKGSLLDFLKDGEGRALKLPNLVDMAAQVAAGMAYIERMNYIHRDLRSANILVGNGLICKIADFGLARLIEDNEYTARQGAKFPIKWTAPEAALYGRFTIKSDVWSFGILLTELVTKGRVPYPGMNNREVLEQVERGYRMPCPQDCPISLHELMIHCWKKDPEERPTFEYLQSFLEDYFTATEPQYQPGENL
# c-Abl (mouse) = assay: as above
# SHP2-C SH2 = assay: SH2 binding enrichment of the phosphorylated peptide, bacterial display (enrichment ratio); higher = better substrate or ligand; peptides without Tyr show the background
# Grb2 SH2 = Grb2 SH2 (UniProt P62993); assay: as above
# c-Src SH2 = assay: as above
# 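Throughout, for SH2 binding enrichment of the phosphorylated peptide, bacterial display: peptide library displayed on the E. coli surface as eCPX fusions, selected cells deep-sequenced, score is each peptide's frequency after selection divided by its frequency in the input.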
# 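Throughout, for phosphorylation enrichment, bacterial display: 11-residue human phosphosite peptides and single-mutation variants displayed on the E. coli surface, counted by deep sequencing, each peptide's frequency after selection divided by its frequency in the unselected input library; frequency after pTyr selection over input frequency; kinase dosed for 20-30% of maximal phosphorylation in three min.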
# EPHB2, sequence (P29323 whole entry, looked up): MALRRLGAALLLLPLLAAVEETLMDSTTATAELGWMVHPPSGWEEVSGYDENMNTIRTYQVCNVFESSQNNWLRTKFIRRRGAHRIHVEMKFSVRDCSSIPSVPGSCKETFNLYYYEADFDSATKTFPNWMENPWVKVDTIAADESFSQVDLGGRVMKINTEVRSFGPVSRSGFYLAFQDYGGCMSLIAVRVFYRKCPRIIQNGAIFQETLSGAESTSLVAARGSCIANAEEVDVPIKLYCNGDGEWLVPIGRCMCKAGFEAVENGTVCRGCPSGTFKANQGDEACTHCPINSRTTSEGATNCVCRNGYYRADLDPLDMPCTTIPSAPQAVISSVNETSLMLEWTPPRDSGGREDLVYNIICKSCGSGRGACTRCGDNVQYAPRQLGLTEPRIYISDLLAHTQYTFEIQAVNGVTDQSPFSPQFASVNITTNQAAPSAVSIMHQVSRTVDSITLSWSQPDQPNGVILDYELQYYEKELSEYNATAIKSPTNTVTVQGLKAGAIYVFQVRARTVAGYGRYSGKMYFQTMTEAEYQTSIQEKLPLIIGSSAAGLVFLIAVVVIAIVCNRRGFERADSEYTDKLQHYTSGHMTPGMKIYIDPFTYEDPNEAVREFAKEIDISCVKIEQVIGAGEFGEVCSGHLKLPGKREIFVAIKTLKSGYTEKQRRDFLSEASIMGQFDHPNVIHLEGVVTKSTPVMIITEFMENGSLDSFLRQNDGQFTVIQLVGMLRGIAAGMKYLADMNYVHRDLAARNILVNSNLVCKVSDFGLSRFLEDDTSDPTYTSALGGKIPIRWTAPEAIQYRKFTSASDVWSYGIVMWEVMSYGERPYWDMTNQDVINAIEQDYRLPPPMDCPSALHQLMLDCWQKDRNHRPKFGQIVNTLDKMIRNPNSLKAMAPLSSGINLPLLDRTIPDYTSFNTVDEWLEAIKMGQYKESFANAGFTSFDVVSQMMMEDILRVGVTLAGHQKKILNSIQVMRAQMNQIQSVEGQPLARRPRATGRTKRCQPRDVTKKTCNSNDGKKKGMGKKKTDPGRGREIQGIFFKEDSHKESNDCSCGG
# FGFR1, sequence (P11362 whole entry, looked up): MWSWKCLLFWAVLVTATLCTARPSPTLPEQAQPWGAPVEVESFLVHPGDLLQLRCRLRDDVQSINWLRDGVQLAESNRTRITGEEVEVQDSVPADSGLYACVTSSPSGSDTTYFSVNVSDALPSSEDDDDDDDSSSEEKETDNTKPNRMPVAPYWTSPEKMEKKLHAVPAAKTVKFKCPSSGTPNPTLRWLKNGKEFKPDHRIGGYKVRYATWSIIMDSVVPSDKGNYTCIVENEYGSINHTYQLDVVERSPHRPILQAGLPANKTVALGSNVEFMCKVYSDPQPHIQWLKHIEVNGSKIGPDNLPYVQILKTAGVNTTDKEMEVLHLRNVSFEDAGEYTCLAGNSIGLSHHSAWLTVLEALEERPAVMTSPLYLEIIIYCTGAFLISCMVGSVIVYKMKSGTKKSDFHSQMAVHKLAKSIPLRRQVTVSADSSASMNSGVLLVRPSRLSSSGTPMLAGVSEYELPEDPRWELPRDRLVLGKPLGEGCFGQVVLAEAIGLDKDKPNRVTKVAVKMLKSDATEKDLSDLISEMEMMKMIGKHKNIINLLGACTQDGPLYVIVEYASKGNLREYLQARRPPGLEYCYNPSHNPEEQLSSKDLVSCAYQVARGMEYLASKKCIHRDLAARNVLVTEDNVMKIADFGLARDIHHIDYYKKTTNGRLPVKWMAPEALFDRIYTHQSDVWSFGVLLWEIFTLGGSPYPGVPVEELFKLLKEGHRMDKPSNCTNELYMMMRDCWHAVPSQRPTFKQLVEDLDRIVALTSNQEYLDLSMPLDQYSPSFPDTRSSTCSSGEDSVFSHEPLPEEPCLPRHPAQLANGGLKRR
# FGFR3, sequence (P22607 whole entry, looked up): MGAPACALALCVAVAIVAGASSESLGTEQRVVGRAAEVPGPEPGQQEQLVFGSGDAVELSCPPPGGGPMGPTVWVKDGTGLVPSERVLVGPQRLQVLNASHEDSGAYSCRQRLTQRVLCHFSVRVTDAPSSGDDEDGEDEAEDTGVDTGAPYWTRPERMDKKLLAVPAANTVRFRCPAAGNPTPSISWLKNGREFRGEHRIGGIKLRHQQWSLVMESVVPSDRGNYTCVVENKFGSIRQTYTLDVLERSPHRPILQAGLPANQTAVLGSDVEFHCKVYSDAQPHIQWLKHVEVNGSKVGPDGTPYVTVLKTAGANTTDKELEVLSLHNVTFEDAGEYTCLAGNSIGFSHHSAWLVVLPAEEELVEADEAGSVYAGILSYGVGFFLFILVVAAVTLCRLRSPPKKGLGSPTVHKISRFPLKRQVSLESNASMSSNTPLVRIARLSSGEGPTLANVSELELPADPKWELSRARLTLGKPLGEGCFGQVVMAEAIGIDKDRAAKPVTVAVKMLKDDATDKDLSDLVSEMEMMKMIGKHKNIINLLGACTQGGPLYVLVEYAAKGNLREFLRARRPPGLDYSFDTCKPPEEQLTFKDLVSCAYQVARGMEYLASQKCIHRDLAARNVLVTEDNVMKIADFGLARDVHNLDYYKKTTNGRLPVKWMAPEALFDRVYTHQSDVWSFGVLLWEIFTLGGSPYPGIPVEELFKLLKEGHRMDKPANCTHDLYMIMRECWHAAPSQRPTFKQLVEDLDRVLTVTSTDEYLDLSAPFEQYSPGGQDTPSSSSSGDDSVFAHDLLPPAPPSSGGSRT
Sequence,phosphorylation enrichment (EPHB2),phosphorylation enrichment (FGFR1),phosphorylation enrichment (FGFR3),phosphorylation enrichment (AncSZ),phosphorylation enrichment (Hck),phosphorylation enrichment (EPHB1),phosphorylation enrichment (Jak2),phosphorylation enrichment (Fer (mouse)),phosphorylation enrichment (MERTK),phosphorylation enrichment (c-Src),phosphorylation enrichment (Fes),phosphorylation enrichment (Fyn),phosphorylation enrichment (c-Abl (mouse)),SH2 binding enrichment (SHP2-C SH2),SH2 binding enrichment (Grb2 SH2),SH2 binding enrichment (c-Src SH2)
DPTNTYARPAE [SGMS2_Y24],0.581,0.598,0.481,1.02,0.506,0.466,0.639,0.33,0.516,0.372,0.785,0.457,0.696,0.698,0.729,2
DQNVEYKGTVW [FHL1_Y117],0.545,0.455,0.755,0.95,0.466,0.558,0.938,0.425,0.496,0.488,1.17,0.496,0.843,0.577,0.866,0.424
DRPASYKKKSM [PDGFRA_Y768],0.367,0.324,0.347,0.383,0.39,0.343,0.494,0.306,0.418,0.409,0.517,0.365,0.546,0.962,0.803,0.412
DRTVHYVDEKG [IFT140_Y216_G212R],0.436,0.413,0.515,0.666,0.441,0.431,0.597,0.368,0.393,0.341,0.742,0.429,0.46,0.916,0.979,0.503
DSFATYFRRVL [H2BW1_Y84],0.677,0.496,0.703,1.35,0.82,0.607,1,0.426,0.448,0.532,1.2,0.472,0.798,0.584,0.797,0.373
DSILVYQRKEQ [USH2A_Y1909_G1911R],0.546,0.517,0.579,0.636,0.55,0.455,0.7,0.487,0.475,0.626,0.744,0.506,0.55,1.18,0.939,0.552
DSRRDYVSQFE [APOA1_Y53_G50R],0.447,0.542,0.503,0.762,0.478,0.456,0.645,0.387,0.464,0.43,0.709,0.409,0.567,0.524,0.803,0.531
DTKDDYSALSV [IL17RB_Y457_N458S],0.663,0.715,0.828,1.05,0.661,0.627,0.928,0.642,0.441,0.473,1.09,0.56,0.815,0.771,0.956,0.609
DVFLKHLNFAT [PDE6B_Y212_Y212H],0.545,0.483,0.66,0.785,0.478,0.547,0.799,0.414,0.466,0.374,0.914,0.507,0.552,0.884,0.842,0.52
DVFVSYDFGKS [SORL1_Y139_YF],0.595,0.416,0.598,0.939,0.636,0.452,0.906,0.485,0.437,0.468,0.907,0.383,0.78,0.641,0.863,0.464
DVLEFCNSKKT [PAK1_Y131_Y131C],0.483,0.428,0.581,0.83,0.401,0.459,0.806,0.436,0.433,0.535,0.861,0.423,0.532,0.693,1,0.403
DYYDLYGGEKF [PTPN11_Y66],6.92,13.4,12.9,2.92,5.08,6.42,2.7,1.61,3.7,4.69,1.2,5.73,0.74,0.68,1.21,0.734
EAAFVYVISSA [WNT4_Y113_A114V],0.656,0.496,1.09,1.32,0.65,0.684,1.33,0.561,0.477,0.631,1.45,0.606,0.847,0.76,0.735,0.39
EACPSYSHVVL [CHST6_Y168_R166P],0.521,0.538,0.51,0.7,0.463,0.492,0.527,6,0.486,0.507,0.702,0.411,0.54,1.75,1,1.52
EADRKYEEVAH [TPM3_Y163_R168H],0.423,0.493,0.633,1,0.531,0.587,0.938,0.521,0.474,0.421,1.04,0.506,0.703,0.626,1.01,20.4
EAVKNYTDKRG [PBRM1_Y672],0.498,0.418,0.459,0.56,0.38,0.484,0.56,0.41,0.478,0.433,0.653,0.421,0.489,0.567,0.866,0.516
EAVLHYKHQNQ [MTOR_Y1804],0.403,0.338,0.453,0.632,0.37,0.405,0.641,0.492,0.363,0.364,0.799,0.428,0.589,0.549,0.904,0.677

Sequence,phosphorylation enrichment (EPHB2),phosphorylation enrichment (FGFR1),phosphorylation enrichment (FGFR3),phosphorylation enrichment (AncSZ),phosphorylation enrichment (Hck),phosphorylation enrichment (EPHB1),phosphorylation enrichment (Jak2),phosphorylation enrichment (Fer (mouse)),phosphorylation enrichment (MERTK),phosphorylation enrichment (c-Src),phosphorylation enrichment (Fes),phosphorylation enrichment (Fyn),phosphorylation enrichment (c-Abl (mouse)),SH2 binding enrichment (SHP2-C SH2),SH2 binding enrichment (Grb2 SH2),SH2 binding enrichment (c-Src SH2)
EDGRLYAVKRS [PKMYT1_Y136],0.496,0.465,0.633,0.753,0.612,0.417,0.728,0.444,0.433,0.485,0.856,0.486,0.692,0.833,0.891,0.525
EDKSIYRRGAR [PRKCI_Y125],0.425,0.435,0.696,0.674,0.429,0.315,0.614,0.356,0.621,0.593,0.669,0.351,0.644,0.594,0.713,0.409
EDNPEYMRLRN [ADD2_Y31_D28N],0.515,0.547,0.653,1.09,0.489,0.518,1.05,0.447,0.408,0.459,0.969,0.444,0.713,0.73,0.85,0.511
EEEYEYMNRRR [ERBB3_Y1199_D1194E],0.402,0.429,0.583,1.15,0.546,0.324,0.882,0.342,0.356,0.36,0.804,0.332,0.329,0.618,0.777,0.605
EEGNPYFSSAR [MCCC2_Y520_YF],0.623,0.461,0.648,1.01,0.638,0.446,0.818,0.43,0.462,1.15,0.966,0.61,0.796,0.627,0.769,0.51
EELLRYAIVTP [POC5_Y37_H36R],0.637,0.514,0.615,0.928,0.439,0.669,0.867,0.6,3.32,0.444,0.922,0.456,0.62,14,0.871,9.68
EERKTYVNTTL [TEK_Y1102],0.519,0.464,0.586,0.83,0.48,0.526,0.983,0.551,0.498,0.446,0.977,0.45,0.779,0.571,8.42,0.516
EEVKAYLDFGE [CHAC2_Y78_R82G],0.535,0.473,0.942,1.3,0.564,0.719,1.62,0.558,0.422,0.574,1.32,0.448,0.944,0.59,0.73,0.383
EFFDGYWEFSV [ITGA2B_Y265_G267E_YF],0.577,8.09,6.69,1.98,2.29,0.709,3.11,0.515,0.631,5.58,1.55,3.4,1.19,0.515,0.674,0.494
EFGEVYKGMLK [EPHA2_Y628],0.441,0.439,0.526,0.503,0.454,0.343,0.394,0.411,0.367,0.481,0.579,0.422,0.377,0.838,1.11,0.553
EFISECCGEII [EZH2_Y641_Y641C],0.695,0.723,0.724,1.27,0.55,0.672,1.07,0.508,0.503,0.472,1.18,0.498,1.24,0.739,0.954,0.501
EFNINYNNELP [THG1L_Y228],0.516,0.488,0.568,0.734,0.429,0.383,1.07,0.38,0.341,0.354,0.829,0.468,0.444,0.839,0.774,0.55
EFQLPYFNTVP [BMPR1A_Y457_M460T_YF],0.549,0.682,0.541,0.879,0.523,0.523,1.08,0.423,0.454,1.26,0.935,0.454,0.615,0.741,1.27,0.667
EFTPLYPMLFG [SCLY_Y280],0.695,12.8,9.26,1.01,0.515,0.59,1.64,0.458,2.6,0.475,1.12,0.547,0.849,4.07,0.993,0.504
EGGFAYVPLKD [PRIM2_Y208_D204G],0.567,0.399,0.497,1.19,0.404,0.466,1.12,0.379,0.371,0.419,1.05,0.369,0.699,0.436,0.637,0.468
EGTGHYLCNAC [GATA5_Y208_D203E],0.375,0.462,0.566,0.524,0.352,0.354,0.505,0.378,0.54,0.395,0.57,0.411,0.525,0.81,1.09,0.445
